From US20140087995A1 (published 2014)
Numbered stars: 1 amine (or outer) side, 2 acyl side, 3 side chain; on linkers, the order of the positions; unused ones are H or OH. Bridge positions count the residues as written; N and C are the ends. Side chains are listed from the residue outwards. Ends that are not written are not given here. * marks the point of attachment. C20 diacid = O=C(O)CCCCCCCCCCCCCCCCCCC(=O)*; γGlu = O=C(O)[C@H](CCC(=O)[*:2])N[*:1]; AEEA = NCCOCCOCC(=O)O

T1: rat calcitonin receptor (rat, UniProt P32214 25-516)
T1 construct: whole, on cells; also called rCTR; rat calcitonin (a) receptor
T1 sequence (looked up): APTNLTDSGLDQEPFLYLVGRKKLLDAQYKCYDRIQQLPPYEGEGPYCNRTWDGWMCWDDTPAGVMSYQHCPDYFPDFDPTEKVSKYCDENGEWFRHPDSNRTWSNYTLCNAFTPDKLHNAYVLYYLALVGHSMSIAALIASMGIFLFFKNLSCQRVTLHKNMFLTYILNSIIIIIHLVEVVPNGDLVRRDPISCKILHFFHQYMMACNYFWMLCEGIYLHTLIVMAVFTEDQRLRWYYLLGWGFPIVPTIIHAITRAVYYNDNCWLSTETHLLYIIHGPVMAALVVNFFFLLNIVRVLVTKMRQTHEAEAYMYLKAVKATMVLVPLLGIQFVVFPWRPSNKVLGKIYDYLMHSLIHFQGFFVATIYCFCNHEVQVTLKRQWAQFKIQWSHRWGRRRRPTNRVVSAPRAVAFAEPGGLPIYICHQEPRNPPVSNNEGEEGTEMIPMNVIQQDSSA

T2: rat amylin receptor (rat calcitonin receptor + rat RAMP 3) (rat, UniProt P32214 25-516; Q9JJ73 23-147)
T2 construct: whole, on cells; also called rAmylin-R; rat amylin 3(a) receptor
T2 sequence (looked up) 1: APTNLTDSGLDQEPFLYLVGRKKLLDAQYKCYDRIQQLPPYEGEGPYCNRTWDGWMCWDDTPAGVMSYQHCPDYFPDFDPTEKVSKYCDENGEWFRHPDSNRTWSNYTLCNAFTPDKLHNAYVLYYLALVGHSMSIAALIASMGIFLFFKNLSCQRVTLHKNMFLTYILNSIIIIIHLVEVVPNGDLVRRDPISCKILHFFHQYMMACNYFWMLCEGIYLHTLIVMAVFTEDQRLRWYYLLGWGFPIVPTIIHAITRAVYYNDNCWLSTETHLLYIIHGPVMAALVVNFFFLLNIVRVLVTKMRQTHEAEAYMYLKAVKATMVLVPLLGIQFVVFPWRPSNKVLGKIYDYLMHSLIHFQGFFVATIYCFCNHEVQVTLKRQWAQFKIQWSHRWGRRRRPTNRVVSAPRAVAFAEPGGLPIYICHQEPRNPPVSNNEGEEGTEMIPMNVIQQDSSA
T2 sequence (looked up) 2: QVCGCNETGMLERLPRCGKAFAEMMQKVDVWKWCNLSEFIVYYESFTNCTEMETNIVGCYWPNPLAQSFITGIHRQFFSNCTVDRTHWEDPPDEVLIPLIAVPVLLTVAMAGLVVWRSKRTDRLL

T3: human calcitonin receptor (human, UniProt P30988 25-474)
T3 construct: whole, on cells; also called hCTR; hCT
T3 sequence (looked up): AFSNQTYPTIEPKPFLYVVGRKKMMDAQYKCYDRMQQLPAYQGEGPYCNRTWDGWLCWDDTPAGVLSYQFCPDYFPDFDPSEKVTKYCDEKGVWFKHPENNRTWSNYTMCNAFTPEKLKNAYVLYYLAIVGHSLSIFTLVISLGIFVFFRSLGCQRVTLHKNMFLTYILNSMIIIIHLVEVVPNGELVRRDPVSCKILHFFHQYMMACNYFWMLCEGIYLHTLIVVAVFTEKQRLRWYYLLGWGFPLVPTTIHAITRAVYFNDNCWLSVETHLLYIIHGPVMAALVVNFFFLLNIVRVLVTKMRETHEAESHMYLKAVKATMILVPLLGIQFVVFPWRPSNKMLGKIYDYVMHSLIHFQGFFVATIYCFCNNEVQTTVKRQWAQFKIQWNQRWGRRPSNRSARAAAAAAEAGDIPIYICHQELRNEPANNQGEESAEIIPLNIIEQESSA


Assays:
[1] = target: T1, rat calcitonin receptor; test: ratio of binding IC50s: rat calcitonin receptor over rat amylin receptor (reference)
[2] = target: T1, rat calcitonin receptor; test: SPA competition with 125I-calcitonin, membranes of BHK cells with rat calcitonin receptor (Assay VIII)
[3] = target: T2, rat amylin receptor (rat calcitonin …); test: SPA competition with 125I-rat amylin, membranes of BHK cells with rat calcitonin receptor + rat RAMP3 (Assay VI)
[4] = target: T3, human calcitonin receptor; test: ratio of binding IC50s: human calcitonin receptor over human amylin receptor (reference)
Procedure, shortened: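 Scintillation proximity competition binding on cell membranes at 35 ng/μL with SPA beads, in 50 mM Hepes pH 7.4, 1 mM CaCl2, 5 mM MgCl₂, 0.1% OA, 0.02% Tween20. Incubated 120 min at 25° C with shaking. IC₅₀ from one-site competition fit.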

| Binder | Ratio rCT/rAmylin binding [1] | IC50 [2] | IC50 [3] | Ratio hCT/hAmylin binding [4] |
| --- | --- | --- | --- | --- |
| K([AEEA-γGlu-C20 diacid])CNTATCATQRLAGFLRHSSPNFGAIPSSTPVGSNTY-NH2 (disulfide 2-7; N-terminus assumed; SMILES CC[C@H](C)[C@H](NC(=O)[C@H](C)NC(=O)CNC(=O)[C@H](Cc1ccccc1)NC(=O)[C@H](CC(N)=O)NC(=O)[C@@H]1CCCN1C(=O)[C@H](CO)NC(=O)[C@H](CO)NC(=O)[C@H](Cc1c[nH]cn1)NC(=O)[C@H](CCCNC(=N)N)NC(=O)[C@H](CC(C)C)NC(=O)[C@H](Cc1ccccc1)NC(=O)CNC(=O)[C@H](C)NC(=O)[C@H](CC(C)C)NC(=O)[C@H](CCCNC(=N)N)NC(=O)[C@H](CCC(N)=O)NC(=O)[C@@H](NC(=O)[C@H](C)NC(=O)[C@@H]1CSSC[C@H](NC(=O)[C@@H](N)CCCCNC(=O)COCCOCCNC(=O)CC[C@H](NC(=O)CCCCCCCCCCCCCCCCCCC(=O)O)C(=O)O)C(=O)N[C@@H](CC(N)=O)C(=O)N[C@@H]([C@@H](C)O)C(=O)N[C@@H](C)C(=O)N[C@@H]([C@@H](C)O)C(=O)N1)[C@@H](C)O)C(=O)N1CCC[C@H]1C(=O)N[C@@H](CO)C(=O)N[C@@H](CO)C(=O)N[C@H](C(=O)N1CCC[C@H]1C(=O)N[C@H](C(=O)NCC(=O)N[C@@H](CO)C(=O)N[C@@H](CC(N)=O)C(=O)N[C@H](C(=O)N[C@@H](Cc1ccc(O)cc1)C(N)=O)[C@@H](C)O)C(C)C)[C@@H](C)O, synthetic analogue of human amylin; also called compound 71) | 162 | 44.8 nM | 0.276 nM | 32 |
| K([AEEA-γGlu-C20 diacid])CNTATCATQRLAHFLRHSSPNFGAIPSSTNVGRNTY-NH2 (disulfide 2-7; N-terminus assumed; SMILES CC[C@H](C)[C@H](NC(=O)[C@H](C)NC(=O)CNC(=O)[C@H](Cc1ccccc1)NC(=O)[C@H](CC(N)=O)NC(=O)[C@@H]1CCCN1C(=O)[C@H](CO)NC(=O)[C@H](CO)NC(=O)[C@H](Cc1c[nH]cn1)NC(=O)[C@H](CCCNC(=N)N)NC(=O)[C@H](CC(C)C)NC(=O)[C@H](Cc1ccccc1)NC(=O)[C@H](Cc1c[nH]cn1)NC(=O)[C@H](C)NC(=O)[C@H](CC(C)C)NC(=O)[C@H](CCCNC(=N)N)NC(=O)[C@H](CCC(N)=O)NC(=O)[C@@H](NC(=O)[C@H](C)NC(=O)[C@@H]1CSSC[C@H](NC(=O)[C@@H](N)CCCCNC(=O)COCCOCCNC(=O)CC[C@H](NC(=O)CCCCCCCCCCCCCCCCCCC(=O)O)C(=O)O)C(=O)N[C@@H](CC(N)=O)C(=O)N[C@@H]([C@@H](C)O)C(=O)N[C@@H](C)C(=O)N[C@@H]([C@@H](C)O)C(=O)N1)[C@@H](C)O)C(=O)N1CCC[C@H]1C(=O)N[C@@H](CO)C(=O)N[C@@H](CO)C(=O)N[C@H](C(=O)N[C@@H](CC(N)=O)C(=O)N[C@H](C(=O)NCC(=O)N[C@@H](CCCNC(=N)N)C(=O)N[C@@H](CC(N)=O)C(=O)N[C@H](C(=O)N[C@@H](Cc1ccc(O)cc1)C(N)=O)[C@@H](C)O)C(C)C)[C@@H](C)O, synthetic analogue of human amylin; also called compound 84) | 94.3 | 477 nM | 5.05 nM | 120 |

Stronger by IC50 [2], values ahead:

| Ratio rCT/rAmylin binding [1] | IC50 [2] | IC50 [3] | Ratio hCT/hAmylin binding [4] | Binder |
| --- | --- | --- | --- | --- |
| 76.6 | 10.3 nM | 0.135 nM | 109 | K([AEEA-γGlu-C20 diacid])CNTATCATQRLANFLRHSSPNFGAIPSSTNVGPHTY-NH2 (disulfide 2-7; N-terminus assumed; SMILES CC[C@H](C)[C@H](NC(=O)[C@H](C)NC(=O)CNC(=O)[C@H](Cc1ccccc1)NC(=O)[C@H](CC(N)=O)NC(=O)[C@@H]1CCCN1C(=O)[C@H](CO)NC(=O)[C@H](CO)NC(=O)[C@H](Cc1c[nH]cn1)NC(=O)[C@H](CCCNC(=N)N)NC(=O)[C@H](CC(C)C)NC(=O)[C@H](Cc1ccccc1)NC(=O)[C@H](CC(N)=O)NC(=O)[C@H](C)NC(=O)[C@H](CC(C)C)NC(=O)[C@H](CCCNC(=N)N)NC(=O)[C@H](CCC(N)=O)NC(=O)[C@@H](NC(=O)[C@H](C)NC(=O)[C@@H]1CSSC[C@H](NC(=O)[C@@H](N)CCCCNC(=O)COCCOCCNC(=O)CC[C@H](NC(=O)CCCCCCCCCCCCCCCCCCC(=O)O)C(=O)O)C(=O)N[C@@H](CC(N)=O)C(=O)N[C@@H]([C@@H](C)O)C(=O)N[C@@H](C)C(=O)N[C@@H]([C@@H](C)O)C(=O)N1)[C@@H](C)O)C(=O)N1CCC[C@H]1C(=O)N[C@@H](CO)C(=O)N[C@@H](CO)C(=O)N[C@H](C(=O)N[C@@H](CC(N)=O)C(=O)N[C@H](C(=O)NCC(=O)N1CCC[C@H]1C(=O)N[C@@H](Cc1c[nH]cn1)C(=O)N[C@H](C(=O)N[C@@H](Cc1ccc(O)cc1)C(N)=O)[C@@H](C)O)C(C)C)[C@@H](C)O, synthetic analogue of human amylin; also called compound 58) |
| 81.7 | 5.63 nM | 0.069 nM | 36 | K([AEEA-γGlu-C20 diacid])CNTATCATQRLANFLRHSSPNFGAIPSSTNVGPNTY-NH2 (disulfide 2-7; N-terminus assumed; SMILES CC[C@H](C)[C@H](NC(=O)[C@H](C)NC(=O)CNC(=O)[C@H](Cc1ccccc1)NC(=O)[C@H](CC(N)=O)NC(=O)[C@@H]1CCCN1C(=O)[C@H](CO)NC(=O)[C@H](CO)NC(=O)[C@H](Cc1c[nH]cn1)NC(=O)[C@H](CCCNC(=N)N)NC(=O)[C@H](CC(C)C)NC(=O)[C@H](Cc1ccccc1)NC(=O)[C@H](CC(N)=O)NC(=O)[C@H](C)NC(=O)[C@H](CC(C)C)NC(=O)[C@H](CCCNC(=N)N)NC(=O)[C@H](CCC(N)=O)NC(=O)[C@@H](NC(=O)[C@H](C)NC(=O)[C@@H]1CSSC[C@H](NC(=O)[C@@H](N)CCCCNC(=O)COCCOCCNC(=O)CC[C@H](NC(=O)CCCCCCCCCCCCCCCCCCC(=O)O)C(=O)O)C(=O)N[C@@H](CC(N)=O)C(=O)N[C@@H]([C@@H](C)O)C(=O)N[C@@H](C)C(=O)N[C@@H]([C@@H](C)O)C(=O)N1)[C@@H](C)O)C(=O)N1CCC[C@H]1C(=O)N[C@@H](CO)C(=O)N[C@@H](CO)C(=O)N[C@H](C(=O)N[C@@H](CC(N)=O)C(=O)N[C@H](C(=O)NCC(=O)N1CCC[C@H]1C(=O)N[C@@H](CC(N)=O)C(=O)N[C@H](C(=O)N[C@@H](Cc1ccc(O)cc1)C(N)=O)[C@@H](C)O)C(C)C)[C@@H](C)O, synthetic analogue of human amylin; also called compound 50) |
